Series [1] deals with adult rat cardiac myocytes. The experiment in a line: Inhibition of phenylephrine-induced spreading response of adult myocytes. It is filed as cell-based. The note with it: IFN-γ 500 U/ml, PE 10^−5 M, 72 hr. The protocol:
FIGS. 3A–3F Inhibition of phenylephedrine (PE)-induced spreading response by IFN-γ. Myocytes were pre-incubated with saline vehicle or IFN-γ (500 U/ml) on day of isolation. A second addition of vehicle or IFN-γ was performed 24h after isolation, along with the addition of either vehicle or PE (10^−5 M). After an additional 72 hr incubation, cells were fixed in glutaraldehyde, stained with eosin Y and viewed by fluorescence microscopy. A, B, C Cardiac myocytes after 4 days in culture: control, PE, and PE+IFN-γ, respectively. D, E, F Histographs showing maximum breadth of rod shaped cardiac myocytes versus percent frequency of breadth occurrence. The maximum breadth of rod-shaped cells was determined by fluorescence microscopy and imaging software. At least 200 rod shaped cells from a single experiment were examined per group. […] P<0.001 for all group comparisons. […]
Isolated adult rat myocytes were plated on laminin-coated plates at a density of 3×10^3 cells/ml. After 72 hours of appropriate stimulation, the cells were fixed with gluteraldehyde and stained with Eosin Y. Images of rod shaped cells were captured under fluorescent microscopy and maximum breadth was determined using imaging software (Simple 32, Compix Imaging, Mars, Pa.).

Series [2] deals with male Sprague/Dawley (SD) rats. The experiment in a line: Cardiac hypertrophy induced by fluprostenol in vivo: body and organ weights. The arrangement: species or system rat. From the text:
This pharmacological model tests the ability of IFN-γ to inhibit cardiac hypertrophy induced in rats (e.g. male Wistar or Sprague-Dawley) by subcutaneous injection of fluprostenol (an agonist analog of PGF2α). It is known that rats with pathologic cardiac hypertrophy induced by myocardial infarction have chronically elevated levels of extractable PGF2α in their myocardium. Lai et al, Am. J. Physiol. (Heart Circ. Physiol.) 271:H2197–H2208 (1996). Accordingly, factors that can inhibit the effects of fluprostenol on myocardial growth in vivo are potentially useful for treating cardiac hypertrophy. The effects of IFN-γ on cardiac hypertrophy are determined by measuring the weight of heart, ventricles, and left ventricle (normalized by body weight) relative to fluprostenol-treated rats not receiving IFN-γ. A detailed description of this assay is provided in the examples.
Animals All experimental procedures conformed to the guiding principles of the American Physiology Society, and were approved by Genentech's Institutional Animal Care and Use Committee. The animals used in this study were male Sprague/Dawley (SD) rats (8 weeks of age, Charles River Breeding Laboratories, Inc.). The animals were acclimated to the facility for at least one week before experiments, fed a pelleted rat chow and water ad libitum, and housed in a light and temperature controlled room.
Administration of fluprostenol and/or IFN-γ Rats received subcutaneous injection of fluprostenol (Cayman Chemical, Ann Arbor, Mich.) at 0.15 mg/kg, recombinant mouse IFN-γ (Genentech, Inc., South San Francisco, Calif.) at 0.08 mg/kg, combination of fluprostenol and IFN-γ, or saline vehicle, twice a day for 14 days. In the IFN-γ and fluprostenol+IFN-γ groups, animals were pretreated with IFN-γ for one day. Body weight was measured before and after treatment. A previous study has shown that the dose of fluprostenol used here is the lowest dose which produces a significant cardiac hypertrophy in rats. Lai et al., supra.
Measurement of organ weights Under anesthesia with ketamine/xylazine, the heart, kidney, and spleen were removed, dissected and weighed. The left ventricle was stored at […] for evaluation of gene expression.
Statistical analyisis Results are expressed as mean±SEM. One way analysis of variance (ANOVA) was performed to assess differences in parameters between groups. Significant differences were then subjected to post hoc analysis using Newman-Keuls method; P<0.05 was considered significant.

The mark [3] stands for this setting: IFN-γ 0.08 mg/kg s.c. twice a day, rats.
[4] abbreviates: s.c. twice a day for 14 days, fluprostenol 0.15 mg/kg, IFN-γ 0.08 mg/kg, mean ± SEM.

The results in this text go back to patent US6989364B1, “Methods for treating cardiac hypertrophy by administering IFN-γ” (Genentech, Inc., priority 1998, dated 2006).

Consider “IFN-γ: recombinant mouse IFN-γ (Genentech, Inc., South San Francisco, Calif., or Genzyme, Cambridge, Mass.)”, for which, in series [1], the “Inhibition of phenylephrine-induced myocyte spreading” value was “can also inhibit spreading induced by phenylephrine”. In series [2] (14 days, fluprostenol and IFN-γ alone vs vehicle, fluprostenol+IFN-γ vs fluprostenol group), the “Ratio of heart, ventricular, and left ventricular weights to body weight (FIG. 4)” value was “did not significantly alter”. For the same substance, in series [2] (setting [3]), the “Effect on body weight, pilot study” value is recorded as “little effects on body weight” and the “Effect on fluprostenol-induced cardiac hypertrophy, pilot study” value was “inhibited fluprostenol-induced cardiac hypertrophy”. The “BWO, basal levels of body weight” value in series [2] (before treatment, mean ± SEM) came out at 292.5 ± 3.2 g. For the same substance, in series [2] (setting [4]), the “BW, body weight post treatment” value turned out to be 380.8 ± 6.1 g; the “HW, heart weight” value is “.956 ± .029 g”; the “KW, kidney weight” value was 1.327 ± .035 g; the “KW/BW, kidney weight to body weight” value was 3.483 ± .069 g/kg. Further, in series [2] (setting [4]), the “LVW, left ventricular weight” value was “.696 ± .023 g”; the “SW, spleen weight” value is recorded as “.924 ± .068 g”; the “SW/BW, spleen weight to body weight” value is listed as 2.415 ± .149 g/kg; the “VW, ventricular weight” value is reported as “.914 ± .029 g”. Moreover, the “ΔBW, BW-BWO” value in series [2] (setting [4]) was 88.3 ± 5.0 g.
